For five molecules, Kd results are on record in paper PMC10279719 (2023).

Experiment in all cases: SPR
In assay [1] the target is T1, full length PEAK3 from insect cells (PEAK3^FL, S69 phosphorylated) (human, UniProt Q6ZS72 1-473, phosphoserine at 69; biotin (EZ-Link NHS-PEG4-Biotin) where immobilised for SPR).
T1 chain: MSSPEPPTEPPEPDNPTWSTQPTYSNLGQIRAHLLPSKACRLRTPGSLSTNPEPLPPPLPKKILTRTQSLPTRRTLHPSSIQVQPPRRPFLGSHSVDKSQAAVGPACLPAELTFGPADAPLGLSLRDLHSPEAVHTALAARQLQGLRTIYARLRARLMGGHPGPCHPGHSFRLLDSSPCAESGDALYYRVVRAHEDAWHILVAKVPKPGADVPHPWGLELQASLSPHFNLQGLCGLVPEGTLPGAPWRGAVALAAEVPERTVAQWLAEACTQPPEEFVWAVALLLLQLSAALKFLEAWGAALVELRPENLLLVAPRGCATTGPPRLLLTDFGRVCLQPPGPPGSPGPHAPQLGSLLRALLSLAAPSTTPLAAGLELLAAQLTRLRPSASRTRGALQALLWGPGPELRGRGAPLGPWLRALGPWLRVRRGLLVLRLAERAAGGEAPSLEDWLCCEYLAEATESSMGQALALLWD

Assay [2] deals with T2, PEAK3^FL from insect cells, phosphorylated by Src (human, UniProt Q6ZS72 1-473, phosphotyrosine at 24 (by Src in vitro, MS/MS); phosphoserine at 69; biotin (EZ-Link NHS-PEG4-Biotin)).
T2 chain: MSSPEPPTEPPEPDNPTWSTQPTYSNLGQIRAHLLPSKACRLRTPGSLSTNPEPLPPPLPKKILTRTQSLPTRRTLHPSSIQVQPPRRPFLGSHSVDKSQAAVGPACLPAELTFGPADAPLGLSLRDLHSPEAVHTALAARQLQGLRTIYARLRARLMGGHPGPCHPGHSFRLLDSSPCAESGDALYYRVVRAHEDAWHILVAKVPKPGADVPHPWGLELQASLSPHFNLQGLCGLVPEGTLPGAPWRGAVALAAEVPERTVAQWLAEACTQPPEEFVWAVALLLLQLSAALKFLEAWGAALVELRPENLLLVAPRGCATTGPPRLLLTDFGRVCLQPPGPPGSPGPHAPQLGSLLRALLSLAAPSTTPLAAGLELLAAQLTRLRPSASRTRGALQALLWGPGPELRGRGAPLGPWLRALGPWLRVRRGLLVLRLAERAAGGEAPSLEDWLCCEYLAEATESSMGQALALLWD

Assay [3] deals with T3, PEAK2^IDR1 (human PEAK2 residues 802–1406) (human, UniProt Q86YV5 802-1406, phosphorylated at the tandem site 14-3-3 motif (RAA(pS)SP) as purified from insect cells; biotin (EZ-Link NHS-PEG4-Biotin) where immobilised for SPR).
T3 chain: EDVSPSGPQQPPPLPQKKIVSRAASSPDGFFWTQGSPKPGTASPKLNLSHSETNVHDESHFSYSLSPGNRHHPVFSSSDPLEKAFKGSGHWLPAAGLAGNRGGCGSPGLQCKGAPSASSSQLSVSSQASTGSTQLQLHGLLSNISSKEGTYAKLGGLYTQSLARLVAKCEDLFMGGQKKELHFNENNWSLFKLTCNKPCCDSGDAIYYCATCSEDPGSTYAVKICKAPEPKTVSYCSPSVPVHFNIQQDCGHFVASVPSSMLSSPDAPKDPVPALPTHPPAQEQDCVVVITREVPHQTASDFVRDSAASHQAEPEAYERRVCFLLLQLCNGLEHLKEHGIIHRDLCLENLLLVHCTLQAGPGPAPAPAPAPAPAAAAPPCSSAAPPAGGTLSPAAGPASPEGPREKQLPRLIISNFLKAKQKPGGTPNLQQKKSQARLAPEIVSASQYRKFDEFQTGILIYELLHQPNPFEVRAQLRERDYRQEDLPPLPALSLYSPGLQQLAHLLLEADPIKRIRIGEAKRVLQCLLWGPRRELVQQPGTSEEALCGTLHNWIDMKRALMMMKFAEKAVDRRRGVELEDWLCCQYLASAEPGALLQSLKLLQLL

Assay [4] concerns the target T4, PEAK1^IDR1 phosphorylated by Src (human, UniProt Q9H792 1082-1746, phosphotyrosine at 1107 (by Src in vitro, MS/MS); biotin (EZ-Link NHS-PEG4-Biotin)).
T4 chain: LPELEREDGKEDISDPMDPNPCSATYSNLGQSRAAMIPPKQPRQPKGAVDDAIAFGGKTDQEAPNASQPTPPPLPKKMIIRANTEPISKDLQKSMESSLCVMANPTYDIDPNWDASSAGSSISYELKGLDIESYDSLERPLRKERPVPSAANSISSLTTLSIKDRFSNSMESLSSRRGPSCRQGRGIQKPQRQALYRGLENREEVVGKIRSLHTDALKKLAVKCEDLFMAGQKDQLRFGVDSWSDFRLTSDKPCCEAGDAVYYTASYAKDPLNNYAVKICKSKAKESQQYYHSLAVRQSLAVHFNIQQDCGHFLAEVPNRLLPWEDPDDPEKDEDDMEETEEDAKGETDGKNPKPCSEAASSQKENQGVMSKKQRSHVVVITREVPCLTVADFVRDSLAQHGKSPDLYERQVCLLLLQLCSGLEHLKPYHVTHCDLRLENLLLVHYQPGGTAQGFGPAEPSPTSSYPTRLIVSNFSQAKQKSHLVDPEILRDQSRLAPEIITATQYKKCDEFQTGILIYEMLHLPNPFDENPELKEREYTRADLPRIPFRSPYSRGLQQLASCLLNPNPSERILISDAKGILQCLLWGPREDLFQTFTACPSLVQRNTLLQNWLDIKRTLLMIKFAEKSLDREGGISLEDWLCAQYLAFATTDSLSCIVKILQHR

The target of assay [5] is T5, PEAK2^IDR1 phosphorylated by Src (human, UniProt Q86YV5 802-1406, treated with Src kinase in vitro, sites not stated; phosphorylated at the tandem site 14-3-3 motif (RAA(pS)SP) as purified; biotin (EZ-Link NHS-PEG4-Biotin)).
T5 chain: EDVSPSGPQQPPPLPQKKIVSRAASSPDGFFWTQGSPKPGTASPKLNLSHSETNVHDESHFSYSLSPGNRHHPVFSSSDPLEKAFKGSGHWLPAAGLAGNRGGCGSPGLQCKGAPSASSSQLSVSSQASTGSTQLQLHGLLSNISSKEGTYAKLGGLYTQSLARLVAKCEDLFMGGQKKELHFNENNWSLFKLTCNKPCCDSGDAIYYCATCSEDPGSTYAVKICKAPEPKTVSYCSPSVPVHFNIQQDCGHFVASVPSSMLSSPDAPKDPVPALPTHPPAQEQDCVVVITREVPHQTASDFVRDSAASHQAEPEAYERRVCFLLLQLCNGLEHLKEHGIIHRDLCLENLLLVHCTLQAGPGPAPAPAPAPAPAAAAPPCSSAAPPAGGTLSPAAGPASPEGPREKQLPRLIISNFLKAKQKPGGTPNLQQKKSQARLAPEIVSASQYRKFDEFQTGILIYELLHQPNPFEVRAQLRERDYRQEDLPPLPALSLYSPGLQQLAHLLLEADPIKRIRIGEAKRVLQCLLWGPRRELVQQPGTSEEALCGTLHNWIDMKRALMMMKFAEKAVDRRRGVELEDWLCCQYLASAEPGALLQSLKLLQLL

B1: CrkII NSH3 domain (CrkII^NSH3, residues 134–191) (domain or fragment)
chain: AEYVRALFDFNGNDEEDLPFKKGDILRIRDKPEEQWWNAEDSEGKRGMIPVPYVEKYR
Consider B1, for which the Kd (as a rule, the equilibrium constant for the complex coming apart) was 3.9 µM in assay [1], 6.8 µM in assay [2] and 4.8 µM in assay [3].

B2: CrkII SH2 domain (CrkII^SH2, residues 6–120) (domain or fragment)
chain: DSEERSSWYWGRLSRQEAVALLQGQRHGVFLVRDSSTSPGDYVLSVSENSRVSHYIINSSGPRPPVPPSPAQPPPGVSPSRLRIGDQEFDSLPALLEFYKIHYLDTTTLIEPVSR
modifications: biotin (EZ-Link NHS-PEG4-Biotin) where immobilised for SPR
Regarding B2, the Kd in assay [4] stood at 12.5 µM; in assay [5], 20700 nM; in assay [2], 48.5 µM.

B3: 14-3-3γ (natural protein)
chain: MVDREQLVQKARLAEQAERYDDMAAAMKNVTELNEPLSNEERNLLSVAYKNVVGARRSSWRVISSIEQKTSADGNEKKIEMVRAYREKIEKELEAVCQDVLSLLDNYLIKNCSETQYESKVFYLKMKGDYYRYLAEVATGEKRATVVESSEKAYSEAHEISKEHMQPTHPIRLGLALNYSVFYYEIQNAPEQACHLAKTAFDDAIAELDTLNEDSYKDSTLIMQLLRDNLTLWTSDQQDDDGGEGNN
Take B3: in assay [2], the Kd was less than 1 µM.

B4: full length CrkII, monomer (CrkII^FL monomer) (natural protein)
chain: MAGNFDSEERSSWYWGRLSRQEAVALLQGQRHGVFLVRDSSTSPGDYVLSVSENSRVSHYIINSSGPRPPVPPSPAQPPPGVSPSRLRIGDQEFDSLPALLEFYKIHYLDTTTLIEPVSRSRQGSGVILRQEEAEYVRALFDFNGNDEEDLPFKKGDILRIRDKPEEQWWNAEDSEGKRGMIPVPYVEKYRPASASVSALIGGNQEGSHPQPLGGPEPGPYAQPSVNTPLPNLQNGPIYARVIQKRVPNAYDKTALALEVGELVKVTKINVSGQWEGECNGKRGHFPFTHVRLLDQQNPDEDFS
modifications: biotin (EZ-Link NHS-PEG4-Biotin) where immobilised for SPR
B4 had a dissociation constant Kd in assay [5] of 2100 nM.

B5: full length CrkII, dimer (CrkII^FL dimer) (natural protein)
chain: MAGNFDSEERSSWYWGRLSRQEAVALLQGQRHGVFLVRDSSTSPGDYVLSVSENSRVSHYIINSSGPRPPVPPSPAQPPPGVSPSRLRIGDQEFDSLPALLEFYKIHYLDTTTLIEPVSRSRQGSGVILRQEEAEYVRALFDFNGNDEEDLPFKKGDILRIRDKPEEQWWNAEDSEGKRGMIPVPYVEKYRPASASVSALIGGNQEGSHPQPLGGPEPGPYAQPSVNTPLPNLQNGPIYARVIQKRVPNAYDKTALALEVGELVKVTKINVSGQWEGECNGKRGHFPFTHVRLLDQQNPDEDFS
modifications: biotin (EZ-Link NHS-PEG4-Biotin) where immobilised for SPR
In turn, B5 came in with a Kd in assay [5] of 1400 nM.
